test: yeast display, Sf9 membrane polyspecificity reagent, FACS + sequencing; frameworks hold sequencing errors
Summary of the method: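 Polyreactivity labels are assigned by the sorting gate from which each nanobody was recovered. The gates were low and high (top ~1%), set on anti-HA fluorescence for expression and streptavidin fluorescence for reagent binding. Before sorting, galactose-induced (36–48 hours) yeast display cells were stained for 1 hour at 4 °C with 10% biotinylated, detergent-solubilized Sf9 membrane reagent.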

| Sequence | polyreactivity (PSR sort gate) |
| --- | --- |
| QVQLVESGGGLVQAGGSLRLSCAASGRIFQYYAMGWYRQAPGKERELVAAISSRGGSTTYADSVKGRFTISRDNAKNTVYLQMNSLKPEDTAVYYCARDWYYYPQYRQRYYYWGQGTQVTVSS | high polyreactivity |
| QVQLVESGGGLVQAGGSLRLSCAASGRNFCVYAMGWYRHDHGKERELVAAISYDDGDTFYADSVKGRFTISRDNAKNTVYLQMNSLKPDDTAVYYCDAEGYSYIQSDLDYCGQGTQVTVSS | high polyreactivity |
| QVKLVESGGGLVQAGGSLRLSCAASGIIFTFYSMGRYRQAPGKERELVAAITGSGGSTYYADSVKGRFTISRDNAKNSVYLQMNSLKPEDTAVYYCAADGPYGYYYGHYGYWGHGTQVTVSS | low polyreactivity |
| QVQLVESGGGLVQAGGSLRLSCAASGIIFHGYAMGWYRQAPGKERELVAAITNSGGRTYYADSVKGRFTISRDNAKNTVYLQMNSLKPEDTAVYYCAADGHKYRMDYWGQGTQVTVSS | low polyreactivity |
| QVQLVESGGGLVQAGGSLRLSCAASGSIFGYYAMGWSRQAPGKEREVVAAISASGGSTYYADSVKGRFTISRDTAKNTVYLQMNSLKPEDTAVYYCAAVRSVTYIWARYPYGLEYWGQGTQVTVSS | high polyreactivity |
| QVQLVESGGGLVQAGGSLRLSCAASGYIFGFYAKGWYRQAPGKERELVARITYSGTSTYYADSVKGRFTISRDNAKNTVYLQMNSLKPEDTAVYYCAKRNKRSAWDSDEYDYWGQGTQVTVSS | low polyreactivity |
| QVQLVESGGGLVQAGGSLRLSCAASGSIFIPYAMGWYRQAPGKERELVAAIRDSGASTYYADSVKGRFTISRDNAKNTVYLQMNSLKPEDTAVYYCAVRFYDWRYYYWGQGTQVTVSS | high polyreactivity |
| QVHLVESGGGLVQAGGSLRLSCAASGFTFEGYAMGGYRQQPGKEREYADSVKGRFTISRDNAKNTVYLQMNSLKPEDTAVYYCASTSYVSSSRTIYSGFVEFEYLGQGTQVTVSS | low polyreactivity |
| QVQLVESGGGLVQAGGSLRLSWAASGRTIVYYAMGWYSQAPGKEREFVAAISRSGGRTSYADSVKGRFTISRDNAKNTVYLHMNILKPDDTAVYYCAAEKRTQPTSREYYWGKGTQVTVSS | high polyreactivity |
| QVQLVETGGGLVQAGGSLRVSCAASGRTFVGNAMGWYRQPPGKERELVAAISYSGDDTYYADSVKGRFTISRDNAKNTVYLQMNSLKPVDTAVYYCAAEWTAENAGIVLELEYWGQGTQVTVSS | high polyreactivity |
| QVQLVESGGGLVQAGGSLRLSCAASGIIFIYNGMGWYRQAPGKERELVATINWSGGNTYYADSVKGRFTISRDNAKNTVSLQMNSLKPEDTAVYDCAVRGSRFWGYDYWGQGTQVTVSS | low polyreactivity |
| QVQLVESGGGLVQAGGSLRLSCAASGFTISYYAMGWYRQAPWKERELVASISSSGGRTYYADSVKGRFTISRDNAKNTVYLQMNSLKPEDTAVYYCAAVGGRSTRGYYWGQGTQVTVSS | high polyreactivity |
| QVQLVESGGGLVQAGGSLRLSCAASGSTFVYYAMGWYRQAPGKERELVAAIRYSGASTYYADSVKGRFTISRDNAKNTVYLQMNSLKPEDTAVYYCAASSRTFGYKYYYWGQGTQVTVSS | high polyreactivity |
| QVQLVESGGGLVQAGGSLRLSCAASGRNFPYYAMGWYRQAPGKERELVAAISSSGGRTYYADSVKGRFTISRDNAKNTVYLQMNSLIPEDTAVYYCNVDAWYPYQGFLVGYYYWGQGTQVTVSS | low polyreactivity |
| QVQLVESGGGLVQAGGSLRLSCAASGFTIGYYAMGWYRQAPGKERELDAAISSGGGSTKYADSVKGRFTISRDNAKNTVYLQMNSLKPVDTAVYYFAKSRLVRGRSSYDYWGQGSQVTVSS | high polyreactivity |
| QVQLVESGGGLVQAGGSLRLSCAASGSTLGRNAMGWYRQAPGKERELVASITRSGGSTYYADSVKGRFTISRDNAKNTVYLQMNSLKPEDTAVYYCAAEVQGQVGEFDYWGQGTQVTVSS | low polyreactivity |
| QFQLVESGGGLVQAGGSLRLSCADSVRTLYRNVMVWYRHAPVKERELVAAISLSGGSTYYEDSVKGRFTISRDNANYTVYLQMNSMKPEYTAVYYCAVKRPYCPGEYGYWGQGTQVTVSS | high polyreactivity |
| QVQLVESGGVLVQAGGSLRLSCAASGSIFGSYGMGWYRQAPGKERELVAAIRVSGGSTYYADSVKGRFTISRDNAKNTVYLQMNSLKPEDTAVYYCAARARSTPRKYYYTRGYWGQGTQVTVSS | high polyreactivity |
| QVQLVESGGGLVQAGGSLRLSCAASGRTFTFNAMGWYRQAPGKERELVAAITRSGGRTYYADSVKGRFTISRDNAKNTVYLQMNSLKPEDTAVYYCAAEWEYSWYDYDYWGQGTQVTVSS | high polyreactivity |
| QVQLVESGGGLVQAGGSLRLSCAASGITFDSYAMGWYRQAPGKERELVAAISYSGGSTYYADSVKGRFTISRDNAKNTVYLQMNSLKPDDTAVYYCAAASDDDYDYWGQGTKVTVSS | low polyreactivity |
| QVQLVESGGGLVQAGGSLRLSCAASGRIFSRYAMGWYRQAPGKERELVAAISKSGGRTYYADSVKGRFTISRDNAKNTVYLQKNSLKPEDTAVYYCATVIFRSSGYYYWGQGTQVTVSS | high polyreactivity |
| QVQLVESGGGLVQAGGSLRLSCAASGITFYFYVMGWYRQAPGKERELVADISTSDDSTYYADSVKGRFTISRDNAKNTVYLQMNSLKPEDTAVYYCATATRTYSAWYEYDYWGQGTQVTVSS | low polyreactivity |
| QVQLVESGGGLVQAGGSLRLSCAASGFTFSRYAMGWYRQAPGKERELVAAITLGGGNTYYADSVKGRFTISRDNAKYSVYLQMNSLKREDTSVYYCNAKFGIFGYRSGGYDYWGEGTQVTVSS | high polyreactivity |
| QVQLVESGGGLDQARGSLRLSCAASGRIFELYAMGWYRQAPGKERELVAAITSSGGTTYYADSVKGRFTISRDNAKNTVYLQMNSLKPEDTAVYYCNTVYATRYDYWGQGTQVTVSS | high polyreactivity |
| QVQLVESGGGLVQAGGSLRLSCAASGFTFRYYAMVWYRQAPGKERELVAAISYSGGSTYYADSVKGRFTISRDNAKNTVYLQMNCLKPEDTAVYYCAAYYPYSREMGYWGQGTQVTVSS | high polyreactivity |
| QVQLVESGGGLVQAGGSLRISSAASGIIFPWYYMGWYRQAPGKESELVAGITDGGDTTYADSVKWRFTISRDYAMNNVYLEMNRLKPEDTAVYYCAADIGYGYWHFDYLGQGTQVTVSS | low polyreactivity |
| QVELVESGGGLVQAGGSLRLSCAASGCIFTFYAMGWYRTAPGKARELVAAISSSGTSTYYADSVKGRFTISRDNAKNTVYLQMNSLKPEDTAVYYCAAGTAYSRYGYWGQGTQVTVSS | high polyreactivity |
| QVQLVESGGGLVQAGGSLRLSCAASGRIFDGNAMGWDRPAPGKERELVADISVTGGSTYYADSVKGRFTISRDNAKNTVYLQMNSLKPEDTAVYYCNAYPFSRSVQLRDYWGQGTQVTVSS | low polyreactivity |
| QVQLVESGGGVVQAGGSLRLSCAASGITFQGDDMGWYRQAPGKEREFVAAITWNGGSTYYADSVKGRFTISRDHAKNTVFLQMNSLKPEDTAVYYCAADWSITYGDGGYWGQGTQVTVSS | low polyreactivity |
| QVQLVESGGGLVQAGGSLRLSCAASGFTFRRNAMGWYRKAPGKERELVAAISSSGGSTNYADSVKGRFTISRDNAKNTVYLQMNSLKPEDTAVYYCNRGSRRLGSIVWYDYWGQGTQVTVSS | high polyreactivity |

From the nanobody polyreactivity screen of Harvey et al. (2022)
